Assays:
[1] = molecular target: T1, Peptide4, OPN-ASARM derivative with the other two Ser residues changed to Ala
T1 chain: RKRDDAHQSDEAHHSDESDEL

[2] = molecular target: OPN:FLAG (FLAG epitope-tagged mouse osteopontin, affinity purified), P10923
[3] = molecular target: Myelin Basic Protein (NEB)
[4] = molecular target: T2, Fat2-3:FLAG (affinity-purified cadherin domains of Drosophila Fat), P33450
T2 chain: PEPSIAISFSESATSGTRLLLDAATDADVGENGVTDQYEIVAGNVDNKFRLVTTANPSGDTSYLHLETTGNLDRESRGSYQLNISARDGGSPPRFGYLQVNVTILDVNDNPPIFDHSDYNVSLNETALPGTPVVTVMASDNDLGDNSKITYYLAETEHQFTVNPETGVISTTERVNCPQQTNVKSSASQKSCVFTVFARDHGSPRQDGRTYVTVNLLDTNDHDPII

[5] = molecular target: dephosphorylated alpha-Casein (Sigma)
[6] = molecular target: T3, Peptide3, OPN-ASARM derivative with the three G-CK consensus Ser residues changed to Ala
T3 chain: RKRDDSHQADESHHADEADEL

[7] = molecular target: T4, BSP:FLAG (FLAG epitope-tagged mouse bone sialoprotein, affinity purified), Q61711
T4 chain: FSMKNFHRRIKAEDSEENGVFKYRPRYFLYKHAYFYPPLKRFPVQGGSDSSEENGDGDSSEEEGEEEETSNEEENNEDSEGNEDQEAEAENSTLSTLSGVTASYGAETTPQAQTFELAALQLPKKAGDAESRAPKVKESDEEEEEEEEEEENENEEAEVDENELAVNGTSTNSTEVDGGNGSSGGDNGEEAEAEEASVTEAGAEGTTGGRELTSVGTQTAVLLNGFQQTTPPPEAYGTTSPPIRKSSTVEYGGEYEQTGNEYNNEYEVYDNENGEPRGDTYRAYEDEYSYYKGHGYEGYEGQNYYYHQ

[8] = molecular target: T5, Peptide2, OPN-ASARM derivative with all five Ser residues replaced by Ala
T5 chain: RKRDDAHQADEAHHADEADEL

[9] = molecular target: T6, Peptide1, OPN-ASARM peptide (human Osteopontin 115Asp to 132Leu with N-terminal Arg-Lys-Arg)
T6 chain: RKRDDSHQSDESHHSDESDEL

[10] = molecular target: T7, DMP1:FLAG (FLAG epitope-tagged mouse dentin matrix protein 1, affinity purified), O55188
T7 chain: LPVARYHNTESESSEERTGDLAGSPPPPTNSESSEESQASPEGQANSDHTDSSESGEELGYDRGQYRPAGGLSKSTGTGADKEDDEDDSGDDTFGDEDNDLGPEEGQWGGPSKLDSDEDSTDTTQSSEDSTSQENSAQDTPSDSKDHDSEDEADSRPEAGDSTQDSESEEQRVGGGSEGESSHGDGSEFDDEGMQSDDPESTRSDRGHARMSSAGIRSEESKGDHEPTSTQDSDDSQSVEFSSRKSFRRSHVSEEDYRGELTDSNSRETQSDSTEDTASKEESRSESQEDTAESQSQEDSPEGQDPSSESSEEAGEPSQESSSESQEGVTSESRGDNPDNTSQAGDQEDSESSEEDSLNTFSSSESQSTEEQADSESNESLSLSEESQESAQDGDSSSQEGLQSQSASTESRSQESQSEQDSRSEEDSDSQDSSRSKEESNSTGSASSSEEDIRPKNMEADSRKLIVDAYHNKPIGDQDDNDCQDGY

OPN:FLAG (FLAG epitope-tagged mouse osteopontin, affinity purified), P10923, sequence (P10923 17-294): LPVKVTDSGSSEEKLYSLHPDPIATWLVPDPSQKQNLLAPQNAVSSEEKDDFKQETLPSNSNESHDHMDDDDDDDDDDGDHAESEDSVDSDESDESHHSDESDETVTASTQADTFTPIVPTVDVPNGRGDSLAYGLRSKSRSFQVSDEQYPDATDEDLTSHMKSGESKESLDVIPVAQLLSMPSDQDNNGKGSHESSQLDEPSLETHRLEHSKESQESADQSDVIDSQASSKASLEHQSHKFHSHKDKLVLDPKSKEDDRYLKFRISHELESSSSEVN

B1: FAM20C:V5 (V5-epitope tagged mouse FAM20C, affinity purified from conditioned medium of HEK293T cells) (protein)
chain: DFSSDPASNLTSHSLEKLPSAAEPVDHAPRGQEPRSPPPRDPAHRPLLRDPGPRPRVPPPGPSGDGSLLAKLFEHPLYQGAVPPLTEDDVLFNVNSDIRFNPKAAENPDWPHEGAEGAEFLPTGEAAVNLYPNWLKFHIGINRYELYSRHNPAIDALLRDLGSQKITSVAMKSGGTQLKLIMTFQNYGQALFKPMKQTREQETPPDFFYFSDYERHNAEIAAFHLDRILDFRRVPPVAGRMINMTKEIRDVTRDKKLWRTFFVSPANNICFYGECSYYCSTEHALCGRPDQIEGSLAAFLPDLSLAKRKTWRNPWRRSYHKRKKAEWEVDPDYCEEVKQTPPYDSGHRILDIMDMTVFDFLMGNMDRHHYETFEKFGNETFIIHLDNGRGFGKYSHDELSILAPLHQCCRIRRSTYLRLQLLAKEEHKLSLLMAESLQHDKVAPVLYQLHLEALDRRLRIVLQAVRDCVEKDGLSSVVEDDLATEHRASTER
- in vitro kinase assay with peptide substrate [1]: a derivative in which the other two Ser residues were changed to Ala (OPN-ASARM^2S-A) was still efficiently phosphorylated by FAM20C
- in vitro kinase assay (32P transfer) [2]: Transfer of ^32P onto OPN, BSP, and DMP1 was observed in the presence of FAM20C:V5
- in vitro kinase assay (32P transfer) [3]: neither Myelin basic protein ... nor cadherin domains of Fat ... were detectably phosphorylated by FAM20C
- in vitro kinase assay (32P transfer) [4]: neither Myelin basic protein ... nor cadherin domains of Fat that are substrates for Fj, were detectably phosphorylated by FAM20C
- Michaelis constant (Km), in vitro kinase assay [5]: a Michaelis constant (Km) of FAM20C for Casein of 1.5 µM
- in vitro kinase assay (32P transfer) [5]: Dephosphorylated Casein was phosphorylated by purified FAM20C in vitro
- in vitro kinase assay with peptide substrate [6]: A peptide in which only the three G-CK concensus sites were changed to Ala (OPN-ASARM^3S-A) was phosphorylated much less effectively
- in vitro kinase assay (32P transfer) [7]: Transfer of ^32P onto OPN, BSP, and DMP1 was observed in the presence of FAM20C:V5
- in vitro kinase assay with peptide substrate [8]: a derivative with all five Ser residues replaced by Ala (OPN-ASARM^5S-A) was not phosphorylated
- in vitro kinase assay with peptide substrate [9]: In vitro kinase reactions confirmed that OPN-ASARM is a FAM20C substrate
- in vitro kinase assay (32P transfer) [10]: Transfer of ^32P onto OPN, BSP, and DMP1 was observed in the presence of FAM20C:V5

From patent publication US20120184713
